According to paper doi:10.1101/2020.01.21.913814:

Target: T1, His-tagged Arabidopsis thaliana full-length UVR8 (UV … LOCUS 8) (Arabidopsis thaliana), Q9FN03
T1 chain: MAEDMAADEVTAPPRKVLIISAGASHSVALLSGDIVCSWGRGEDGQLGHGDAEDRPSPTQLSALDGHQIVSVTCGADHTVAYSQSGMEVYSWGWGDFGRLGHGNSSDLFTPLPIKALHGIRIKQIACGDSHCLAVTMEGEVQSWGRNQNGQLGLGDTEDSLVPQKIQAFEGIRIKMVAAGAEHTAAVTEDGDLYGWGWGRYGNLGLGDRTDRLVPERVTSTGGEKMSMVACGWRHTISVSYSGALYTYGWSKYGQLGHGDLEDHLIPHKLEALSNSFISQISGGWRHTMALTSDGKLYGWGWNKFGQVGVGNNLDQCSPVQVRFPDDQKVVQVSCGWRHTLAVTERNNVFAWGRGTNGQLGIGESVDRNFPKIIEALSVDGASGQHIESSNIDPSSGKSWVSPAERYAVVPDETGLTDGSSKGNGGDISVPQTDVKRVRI
Experiment: SDS-PAGE without boiling
Conditions: remark: other sources report otherwise

- stoichiometry N: 2
B1: His-tagged Arabidopsis thaliana full-length UVR8 (UV … LOCUS 8), Q9FN03 1-440 (natural protein)
chain: MAEDMAADEVTAPPRKVLIISAGASHSVALLSGDIVCSWGRGEDGQLGHGDAEDRPSPTQLSALDGHQIVSVTCGADHTVAYSQSGMEVYSWGWGDFGRLGHGNSSDLFTPLPIKALHGIRIKQIACGDSHCLAVTMEGEVQSWGRNQNGQLGLGDTEDSLVPQKIQAFEGIRIKMVAAGAEHTAAVTEDGDLYGWGWGRYGNLGLGDRTDRLVPERVTSTGGEKMSMVACGWRHTISVSYSGALYTYGWSKYGQLGHGDLEDHLIPHKLEALSNSFISQISGGWRHTMALTSDGKLYGWGWNKFGQVGVGNNLDQCSPVQVRFPDDQKVVQVSCGWRHTLAVTERNNVFAWGRGTNGQLGIGESVDRNFPKIIEALSVDGASGQHIESSNIDPSSGKSWVSPAERYAVVPDETGLTDGSSKGNGGDISVPQTDVKRVRI
